Assay in all cases: cell_activity
For data set [1], the system named is XylT_T03 TALEN right monomer (synthetic (TAL effector-FokI-type nuclease)?). The settings on record: pair activity on full site SEQ 64, yeast 37C; 0.7 at 30C; protoplast NHEJ 34.4% XylT1, 28.2% XylT2 (Table 3).
The subject of data set [2] is FucT1_T02 TALEN left monomer (synthetic (TAL effector-FokI-type nuclease)?).
Data set [3] has as its system FucT2_T02 TALEN left monomer (synthetic (TAL effector-FokI-type nuclease)?).
Data set [4] deals with FucT1_T04/FucT2_T04 TALEN right monomer (synthetic (TAL effector-FokI-type nuclease)?). The following applies: pair activity on SEQ 70 and SEQ 71, yeast 37C; 0.5 at 30C.
Data set [5] has as its system FucT1_T01 TALEN left monomer (synthetic (TAL effector-FokI-type nuclease)?). The following applies: pair activity on full site SEQ 66, yeast 37C; 0.6 at 30C.
The subject of data set [6] is FucT2_T01 TALEN right monomer (synthetic (TAL effector-FokI-type nuclease)?). The settings on record: pair activity on full site SEQ 67, yeast 37C; 0.8 at 30C.
For data set [7], the system named is FucT1_T04/FucT2_T04 TALEN left monomer (synthetic (TAL effector-FokI-type nuclease)?). The settings on record: pair activity on SEQ 70 and SEQ 71, yeast 37C; 0.5 at 30C.
Data set [8] has as its system XylT_T03 TALEN left monomer (synthetic (TAL effector-FokI-type nuclease)?). The settings on record: pair activity on full site SEQ 64, yeast 37C; 0.7 at 30C; protoplast NHEJ 34.4% XylT1, 28.2% XylT2 (Table 3).
The test system of data set [9] is FucT1_T02/FucT2_T02 TALEN right monomer (synthetic (TAL effector-FokI-type nuclease)?). The following applies: pair activity with either left monomer (SEQ 68 or 69), yeast 37C; 0.7 at 30C.
Data set [10] has as its system XylT_T04 TALEN left monomer (synthetic (TAL effector-FokI-type nuclease)?). The settings on record: pair activity on full site SEQ 65, yeast 37C; 0.9 at 30C; protoplast NHEJ 73.8% XylT1, 63.9% XylT2 (Table 3).
The subject of data set [11] is FucT2_T01 TALEN left monomer (synthetic (TAL effector-FokI-type nuclease)?). The following applies: pair activity on full site SEQ 67, yeast 37C; 0.8 at 30C.
Data set [12] relates to FucT1_T01 TALEN right monomer (synthetic (TAL effector-FokI-type nuclease)?). The following applies: pair activity on full site SEQ 66, yeast 37C; 0.6 at 30C.

In turn, “ATCACTCTCTATCTCTA (double strand) [XylT_T03 target 2 (SEQ 50, printed as top strand)]” came in with an activity (relative to I-SceI) in data set [1] of 0.9.

The sequence “TTCAAACGCACCCAATA (double strand) [FucT1_T02 target 1 (SEQ 57)]” gave an activity (relative to I-SceI) in data set [2] (pair activity on full site SEQ 68, yeast 37C, 0.7 at 30C, protoplast NHEJ 39.2% FucT1 (Table 3)) of 0.9. In addition, the activity in [3] (FucT2_T02 pair on endogenous FucT1 (1-bp mismatch in left site), N. benthamiana protoplasts, control 0.79%) came out at 46.5 % NHEJ.

In turn, “TTTCTGGTTCGACTCGA (double strand) [FucT_T04 target 2 (SEQ 63, printed as top strand)]” had an activity (relative to I-SceI) in [4] of 0.6.

Take “TGAGATCGGCGTCAAAT (double strand) [FucT1_T01 target 1 (SEQ 53)]”: the activity (relative to I-SceI) in data set [5] is 0.8.

As to “GATAAACAATGGCGCAA (double strand) [FucT2_T01 target 2 (SEQ 56, printed as top strand)]”, the activity (relative to I-SceI) in [6] is 0.9.

The sequence “TTGCCTCTGTTCGTTGC (double strand) [FucT_T04 target 1 (SEQ 62)]” displayed an activity (relative to I-SceI) in data set [7] of 0.6.

“TTCTTGTTTCTCTCTTC (double strand) [XylT_T03 target 1 (SEQ 49)]”: in [8], the activity (relative to I-SceI) is 0.9.

As for “CTCTGTTCGTTGCCCTA (double strand) [FucT_T02 target 2 (SEQ 58, printed as top strand)]”, the activity (relative to I-SceI) in data set [9] worked out at 0.9.

In turn, “TCTCTTCGCTCTCAACT (double strand) [XylT_T04 target 1 (SEQ 51)]” yielded an activity (relative to I-SceI) in [10] of 0.9.

Sequence “TTCAAACGCACCCGATA (double strand) [FucT2_T02 target 1 (SEQ 59)]” came in with an activity in [2] (FucT1_T02 pair on endogenous FucT2 (1-bp mismatch in left site), N. benthamiana protoplasts, control 0.14%) of 24.7 % NHEJ. Moreover, in [3] (pair activity on full site SEQ 69, yeast 37C, 0.7 at 30C, protoplast NHEJ 45.0% FucT2 (Table 3)), the activity (relative to I-SceI) is 0.9.

Sequence “TGAGATCGTCGTCAAAT (double strand) [FucT2_T01 target 1 (SEQ 55)]” had an activity (relative to I-SceI) in data set [11] of 0.9.

“AATAAGCAATGGCGCAA (double strand) [FucT1_T01 target 2 (SEQ 54, printed as top strand)]”: the activity (relative to I-SceI) in data set [12] is 0.8.

For the origin of these results see patent US20150272076.
